In a protein production outcome set (Wang et al. 2014):

Experiment: label from the status in PepcDB records
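Note: failed if final PepcDB status was selected cloned or expressed and not failed if soluble or beyond.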

With “MLVFLTRFTPMNLIRNRWAQIFTQSILGVLIAGGTAWAGDPFRPNNPHNIGDQTEAAFEAIFRDGNYRGAEEILAGAIQAEPNEPLVYAMQASFAYDANDMEGMRKYAQQTLESAQRLAPSDPLRGNLYIAVGHFLEGSYLLKKGSYLQAVGKTGTVFEHLDKASAINPNDPELNLLRGYLDLFLSRYTPFSQSEQVISRFEQYAAPDYLRYRALATTYRDLEKYDLAMANIDRALAITPDNPELQYLKGQFLRNEGRRSMDLGKLQQAQQYYAMALQKQDQLSRALVVQLNHENNAVVDEIQKLAQNPSLKGF” the protein production was “failed”.

In the case of “MLVGPAPTTDGSAENTLNEKRLVHGSIAFWLGPRAPQTKTHRWTVYVRGARDPLEDLSLYIQKVEFVLHESFADPVRVVKEPPFCLTEHGWGEFEVIIRLFPISDPDKPVEMYHPLRLFPSVGQELTEKPVVSEHLDVLVFSQPAPEVERALHRSDVARMPSDCWGDLMPLFGGDLHQVEEEDLRKVQQARERVRQQIQATRLQYEALTAELARARTHALHRELS”, the protein production is reported as “not failed”.

With “MLVGSQLIEIVIDSLRYENLKEILDEMFRDEVQKLKYFLEDVKEEDEELYNKIVDALKLFKENYEIEDIKIPKKIRVFLVKNNILFLNPQKGSLKPQSYLVWNAIKMLL” the protein production was “failed”.

For “MLVRLKETDQRTMISRIKALAPPVQKAGAALLIDGHAELVARGGADGAHLPGIAALKEALPSLKPDRIAGVGGLTTRHHSMDAGEIGADYLLFGEPDAKGQRPSSEAIAERLDWWAELFEPPCVGFATSLEEAYDFAASGADFVLVGEFVWADPRGAKAALIEADATIKKAHAAALASQNPAGEHG”, the protein production was “failed”.

For “MLVRLTMICNGATAATRRGSFPLDEPLEPRSLTRAKAMRGTLRHADRAWTAPALRARQIAEALSLEAAVEPLLADQDHGSWAGKSFEDVQAEQPGDIAAWLADPDAAPHGGESLADVARRASGLMEKLMAEPGHTIAMTHASVIRTAIVHVLGAPLAACWKIDIEPLSITDFRSDGRRWVLRACGVTSPKAAKPLLR”, the protein production was “failed”.

In the case of “MLVTKLAPDFKAPAVLGNNEVDEHFELSKNLGKNGAILFFWPKDFTFVCPTEIIAFDKRVKDFQEKGFNVIGVSIDSEQVHFAWKNTPVEKGGIGQVTFPMVADITKSISRDYDVLFEEAIALRGAFLIDKNMKVRHAVINDLPLGRNADEMLRMVDALLHFEEHGEVCPAGWRKGDKGMKATHQGVAEYLKENSIKL”, the protein production is reported as “failed”.

With “MLWTQVYDPFSNITLSAMVAMLPLAILFYMLAVRRAKGHVAAACGLAGAFAATVAVWGMPAGLAVNATLYGVAMGLFPIIWIVLTAVWLYNMTVESGEFEIIKSSLARLTDDRRLQALFIAFAFGAFLEGTAGFGTPVAITAAMLMGLGFSPVYAGGICLIANTAPVAFGALGIPVIVASQVSGLDTLTLSQYVGRQLPVFSLIVPLWMTVVMCGFKRTMEVMPAIVVASVCFSGTQFIFADWHGPTLPDVMAAIVTIVGLLVLLRFWKPARTWHFADEKPEAATGETRHSTGEVLRAWAPYAILAVFVFFWGLGSVKTFLNNIFIMSFEWPGLHAAIAKTAPIVKADAPYAAKFTFNLISAGGTAILFAGLLSVPVMPGYGYGRAFGCLARTCYQLRFPILTIVMILGLAQLMNYSGMSSTLGIAFTHTGALFPFFAPIMGWLGVFLTGSNTSSNALFGSMQHATASAVGVDPYLTVAANATGGVTGKMISPQSISVATASTHTVGQEGALFRFALKHSIAMTLVICVLVTLQAYVIPWMLPAR” the protein production was “failed”.

With “MLYDLTVVQFSKMLKNLNAIFDKAEAFAELKKVDMDVLLNSRLAADQFNLIRQVQIACDTAKVGVARLTGQLETAPKHDDSETTLAELRQRIASVLTYLEGFSEADFANAATIQISQPRWQGKYLTGYEFAIEHAIPNLYFHITTAYGILRHNGVEVGKKDYLGAMPYKAPIL” the protein production was “not failed”.

With “MLYLAELLQGKNALITGAGRGIGRAVAIALAKEGVNVGLLARSEENLKAVAKEVEAEGVKAVIATADVSSYEEVTTAIETLKNGLGSIDILINNAGISKFGKFLELDVADWEKIIQVNLMGVYYATRAALPSMIEQQSGDIINISSTAGQKGAPVTSAYSASKFGVLGLTESLAMEVRKHNIRVTALTPSTVATDMAVDLGLTDGNPDKVMQAEDIAEFIVAQLKLNKRTFIKSAGLWSTNP” the protein production was “failed”.

For “MLYPSKPNNEALRIQTLRELNVLDTSPEERFDRLTRLAKRLFNVPIALVSLVDADRQWFKSCVGLDVSETSRDISFCGHAILGDQILTVPDAGLDERFHDNPLVVGAPGIRFYAGCPLTVTNGSKLGTLCLIDIKPRDLDDEDRALLRDLARMAEQELAAVQMASMDELTLLSNRRGFEALARHALGVCKRLEKPATLLFFDLNDFKQINDTYGHAEGDGALKTFADVLRIAFRESDVIGRLGGDEFVALLTAADHVETSAIMARLREILDERNATLKRGYDIRFSVGQIEYDAERHPDIEALLADADKAMYLHKQASKRARLEHHHHHH”, the protein production was “failed”.

With “MMAACWFGCAPAAELHAYTEDVPPLNYLDNGNVKGYSTEVLQLVAREAGFNLTVEVLPWLRAYAKARDTAGGLLYTVVRTPEREAQFQWVGPIGSRRIYMYRLGPRGNIRVDAASDLTRYRNGVLTGSATASQLQALGLQSGLNLDLGQSDAVNLKKLLLKRVDLIAMLDWAMAWQLRLQRLPENTVAPAWLLDGKLQYWFALNPHTPPEQVAKLQAALDRIRADGRLQAIRRRYRDD” the protein production was “failed”.

In the case of “MMAAREQRSFRQLSLLRQFEGQSLLCASMNIPGPIKCSESLNKTFQSIINLVKEDLRGRIIFEREVHQKTGWEYYCLSDLPVSELKTKMIAIETKISIGRLMDLDVLHLVNGIPQPISRQELGFPRRQCYICQNDAKVCSRSRKHSVIEMQEAIAKFIKINH”, the protein production is reported as “failed”.

With “MMALTMDFSTQLLEHQVTAILLLDDQRQIHYANPAAEQLFSQSAQRMAQHAFDDLFHSPQFDLSTLMLPLNTGQSVTDSDVRIMIDEQPLYIELTSSPVAINKSLYLLVEIRQIE” the protein production was “failed”.

With “MMCRSITLFLFALISIVVGKQLSAQSISELRLLIDSGRYDRALPIAQQLVAKNPKHADNNYMLGLLLYKAERYEEAIAPLRVAVSRRSDAYEMLADAYAKEYFFSEALAALEKQKVTLVKKKQETVSIDAGIDRMRRAVRLLDRAEWVEVIDSVRTNKADLLSAYNLIADNGRLEWVKGNQGEATSFVNGRGDHAIMTEKGEDGVYSLHEAHRIGGKWGNAIPLEKLNSRFNENYPSLRADGFTLLFASDRPDGIGGYDLYMTRRDLEDGIFLEPTLLGMPFNSPYNDYLLVYDELRGIGFFASDRFCPADVVTVYTFVINEEGRPVATDDMALKRAYASLKSIRATQDPERDYSRLIASARDNRTDAEKKASERQIYFPMQGMRIYTRWSDFQSSEAKSLYQDVMARKRKLEQAATRLEELRLLYGRASALERSGMKQEILRLENAIPPLEEEVGRMEKEVRNMELQAVQGF” the protein production was “failed”.

In the case of “MMDNDNSLNKRPTFKRALRNISMTSIFITMMLIWLLLSVTSVLTLKQYAQKNLALTAATMTYSLEAAVVFADGPAATETLAALGQQGQFSTAEVRDKQQNILASWHYTRKDPGDTFSNFISHWLFPAPIIQPIRHNGETIGEVRLTARDSSISHFIWFSLAVLTGCILLASGIAITLTRHLHNGLVEALKNITDVVHDVRSNRNFSRRVSEERIAEFHRFALDFNSLLDEMEEWQLRLQAKNAQLLRTALHDPLTGLANRAAFRSGINTLMNNSDARKTSALLFLDGDNFKYINDTWGHATGDRVLIEIAKRLAEFGGLRHKAYRLGGDEFAMVLYDVQSESEVQQICSALTQIFNLPFDLHNGHQTTMTLSIGYAMTIEHASAEKLQELADHNMYQAKHQRAEKLVR”, the protein production is reported as “failed”.

For “MMEMITIKPGKITVQANPNMPKEVAELFRKQHYEIVGRHSGVKLCHWLKKSLTEGRFCYKQKFYGIHSHRCLQMTPVLAWCTHNCIFCWRPMENFLGTELPQPWDDPAFIVEESIKAQRKLLIGYKGNPKVDKKKFEEAWNPTHAAISLSGEPMLYPYMGDLVEEFHKRGFTTFIVTNGTIPERLEEMIKEDKLPTQLYVSITAPDIETYNSVNIPMIPDGWERILRFLELMRDLPTRTVVRLTLVKGENMHSPEKYAKLILKARPMFVEAKAYMFVGYSRNRLTINNMPSHQDIREFAEALVKHLPGYHIEDEYEPSRVVLIMRDDVDPQGTGVEGRFIKH”, the protein production was “not failed”.

With “MMENQVNEQTVTSPENGSSATGYNSGIWDGLSVVALIGGAIASVVLPANPAAGVIPVAAGVGLHLFNRKQLEEHLLANQRATAAQIVQLVNQNQAHLQEYLQKFQGDIQTSLGQQQQAIAANQENLTKALAEKSLALQGKLEAFQAAAAQTHAGLDIKHQDLLAVVTELRTMEGCTQSLAAYPHAEAYYQRGLSHYRLEDWAEAVRDCTEAIRLRGDLAGAFHHRGMAYARLDNRKQATDDLRQAYKLYFDQGDLDSYEVARALHKQYYEGPVEDLELEPTPVMPPAEGVGHEAYIADPDREIKPLLAEESDTTAANLFG” the protein production was “failed”.

For “MMEQKIMEVLRRMQAILDEACLRDLKTVLQVVFEGCEISQEKRELRVPDRSWAIDLEEYLMSKALEGKSPGTVDRYRYELQRLLSYVNKAVRDITEGDISGYMRAYKAIRQVSNQTLKNVRAVYSSFFAWLRDRDRIRRNPMALVEAIKVEQKIRKPYTDEEREMLLRNCSTLRDKAMMEFFYSTAVRVSELVTLNRDDIRFTSKDLIVFGKGSKERRVYLNDRTNLYMKEYLDSRTDGSPALIVSIRRPHSRLSKTGIEDIIRRTGQRAGVEKAHPHRFRRTSLTNALNRGMPLQEAMVMAGHAKPETTMGYCTVDQEGVKYHHQKYLSA”, the protein production was “failed”.

For “MMESGAGFVAMEERISPGSFFQYPLSGFRASPNRSPCPPSDRERYLTELLQERQKLGPFLQVMPNCCRLLNHEIRRVSSFPDLDRYEHGSPFRSLGQPTNGKLDLEGWSMMQAEVSHC”, the protein production was “failed”.

In the case of “MMFDEFKRTILREDIKYEIFRKFFHIFSLIVLVFYRINFWIGLFSNILFMILYLSSEIFRITEKKILFFKNISNIILKSRKILPNRVSFSPVFLFLGILISYCLSMHPFNYIGIFSVCLGDGFASLIGKLIPSFKLVNGKTISGSLVVFCVTFFSYYYFFPYLTVALILGILAVLVELFDAANYDNLFLPLVVSASSYFLTSFFYSQ”, the protein production is reported as “failed”.

In the case of “MMFLSKTLTSLGQWPHSLPRISLMDRYVARQLIPPFLFSVGVVASLGLAIGNLSDLGNKIVEKNLPVAKAAEVLLLKVPEFLAYSLPVAVMLATMMTFGRLSGDCEIIAIRSCGVSLYRLILPAVVLSLLVTGWAFVLTEWVVPVANYRATSILIESIDEEHPFWQNRDVFYPEFEEIKLDNGQTARRLKSLVYAEKFDGKEMQNLTVLQWTENHLKHIVLSDNATWNNDNKRWDFFHGTVYRLTETEDYQEAVPFTNKQIALPQSAFDFARQGRDPYEMTIAEAQDYIKILKLIGDEKKTQFFQVRTEQKLAFPFVCIVFAVVGSAIGARPQRISRATGFGLTIVIIFAYYILGFFSGSLGIVGLISPTLAAWLPNFVGLGVGIWLLYEFNQG”, the protein production is reported as “failed”.

In the case of “MMGLKAHAMVLEKFNQPLVYKEFEISDIPRGSILVEILSAGVCGSDVHMFRGEDPRVPLPIILGHEGAGRVVEVNGEKRDLNGELLKPGDLIVWNRGITCGECYWCKVSKEPYLCPNRKVYGINRGCSEYPHLRGCYSSHIVLDPETDVLKVSEKDDLDVLAMAMCSGATAYHAFDEYPESFAGKTVVIQGAGPLGLFGVVIARSLGAENVIVIAGSPNRLKLAEEIGADLTLNRRETSVEERRKAIMDITHGRGADFILEATGDSRALLEGSELLRRGGFYSVAGVAVPQDPVPFKVYEWLVLKNATFKGIWVSDTSHFVKTVSITSRNYQLLSKLITHRLPLKEANKALELMESREALKVILYPEG”, the protein production is reported as “not failed”.

With “MMHPVASSNPAFCGPGKPSCLNEDAMRAADQFDIYSSQQSKYSHTVNHKPMVCQRQDPLNETHLQTTSGRSIEIKDELKKKKNLNRSGKRGRPSGTTKSAGYRTSTGRPLGTTKAAGFKTSPGRPLGTTKAAGYKVSPGRPPGSIKALSRLADLGYGCGTAAFPYPMMHGRAVHGVEETSSEVKPPNE” the protein production was “failed”.
